The target in test [1] is T1, human MHC class II DR protein (DRA*0101/DRB1*0401), purified from PRIESS cells (human, UniProt P01903 26-254; P01911 30-266, limits assumed).
T1 construct: mature; also called HLA-DR protein; MHCII
T1 MHC II alpha: not shown
T1 MHC II beta: not shown
Description: SPR (BIAcore), MHCII on CM5 chip. For orientation: In SPR one partner is held on a chip, and binding of the other changes the refractive index at the surface.

In test [2] the target is chimeric 0401-IE class II molecule on cells of transgenic mice (human/murine chimera). Description: cell-based or functional assay.
Test [3] addresses T1, human MHC class II DR protein …. Kind of test: ELISA, coated antigen, Fab 100 ng/well, read at 370 nm. Here is the method: After washing in PBS the anti-human IgG F(ab')_2-peroxidase-conjugate at a 1:10,000 dilution in TBS (supplemented with 5% w/v non-fat drymilk/0.05% v/v Tween 20) was added to each well for 1 h. Final washes were carried out in PBS followed the addition the substrate POD (Roche).
On the technique in general: ELISA stands for enzyme-linked immunosorbent assay.

For test [4], the target named is T2, HLA-DR (DRA*0101/DRB1*0401) on PRIESS cells (human, UniProt P01903 26-254; P01911 30-266).
T2 MHC II alpha: not shown
T2 MHC II beta: not shown
Description: cell-based or functional assay.

Test [5] concerns the target T1, human MHC class II DR protein …. Description: BiaCore, Fab.
The target in test [6] is HLA-DR on MHH-CALL-4 cells (human). Description: cell-based or functional assay.
Test [7] deals with T2, HLA-DR (DRA*0101/DRB1*0401) on PRIESS …. Description: cell-based or functional assay.
For another test, the target named is HLA-DR on BONNA-12 cells (human). Kind of test: cell-based or functional assay.
A further test addresses HLA-DR on BJAB cells (human). Description: cell-based or functional assay.
Another test deals with HLA-DR on MN-60 cells (human). Description: cell-based or functional assay.
For test [8], the target named is T1, human MHC class II DR protein …. Kind of test: SPR (BIAcore), Fab, 8 preparations on 4 chips.
For test [9] the target is unchanged. Description: BiaCore, Fab.
Test [10] shares this target. Kind of test: SPR (BIAcore), chip density 4000 RU MHCII.

We go through two molecules from patent US7521047 (GPC BIOTECH, dated 2009).

B1: MS-GPC-8 Fab (Fab, V domains shown)
VH: QVQLKESGPALVKPTQTLTLTCTFSGFSLSTSGVGVGWIRQPPGKALEWLALIDWDDDKYYSTSLKTRLTISKDTSKNQVVLTMTNMDPVDTATYYCARSPRYRGAFDYWGQGTLVTVSS
VL: DIVLTQPPSVSGAPGQRVTISCSGSSSNIGSNYVSWYQQLPGTAPKLLIYDNNQRPSGVPDRFSGSKSGTSASLAITGLQSEDEADYYCQSYDMPQAVFGGGTKLTVLG
notes: Fab from pMx9_Fab: VH-CH1 with FLAG tag and STREP tag II, VL-CL; VH residue 1 is Q in Fab; also called B8-Fab; B8
A word on the Kd: it is a measure of binding affinity in units of concentration. The low end stands for tighter binding, the high end for weaker binding. As a reminder, the koff is the first-order rate constant of dissociation. In general, kon refers to the second-order rate constant of association. Low values mean slow association, high ones fast association. Take B1: the Kd in test [1], in test [5] and in test [8] was 346 nM in each case. Besides, the koff in test [1], in test [5] and in [8] was 0.029 s⁻¹ each time. The kon in test [1], in test [5] and in [8] was 99000 M⁻¹ s⁻¹ each time. Besides, the “IC50 of inhibition of IL-2 secretion from T-Hyb 1 cells” value in test [2] was 110 nM (half the concentration of the Fab). The “Maximum inhibition(%) of IL-2 secretion” value in [2] is 100%. The molecule also gave an ELISA signal in [3] of 1.06. Further, in [4], the “EC50 of cell killing, cross-linked Fab, bivalent agent” value is 31 nM. The “cell killing, cross-linked Fab, 4 h” value (in [6]; with HLA-DR on BONNA-12 cells; with HLA-DR on BJAB cells; with HLA-DR on MN-60 cells) was over 50% each time. The “maximum capacity to kill MHH-Call 4 cells” value in test [6] came to 65%. Moreover, in [7], the “maximum killing capacity, cross-linked bivalent fragment” value amounted to 84%.

B2: MS-GPC-8-17 Fab (Fab, V domains shown)
VH: QVQLKESGPALVKPTQTLTLTCTFSGFSLSTSGVGVGWIRQPPGKALEWLALIDWDDDKYYSTSLKTRLTISKDTSKNQVVLTMTNMDPVDTATYYCARSPRYRGAFDYWGQGTLVTVSS
VL: DIVLTQPPSVSGAPGQRVTISCSGSSSNIGSNYVSWYQQLPGTAPKLLIYDNNQRPSGVPDRFSGSKSGTSASLAITGLQSEDEADYYCQSYDFSVYVFGGGTKLTVLG
notes: Fab: VH-CH1 with FLAG tag and STREP tag II, VL-CL; VH residue 1 is Q in Fab; also called 7BA
As to B2, in test [1], the Kd is 54.7 nM, the koff came to 0.00548 s⁻¹ and the kon was determined as 100000 M⁻¹ s⁻¹. Besides, in test [4], the “EC50 of cell killing, cross-linked Fab, bivalent agent” value worked out at 16 nM. In addition, the “fold affinity improvement compared to MS-GPC-8/B8” value in [9] worked out at 5 fold. In [5], this molecule came in with a Kd of 58.6 nM, a koff of 0.00548 s⁻¹ and a kon of 96000 M⁻¹ s⁻¹. The “maximum capacity to kill MHH-Call 4 cells” value in test [6] turned out to be 78%. Moreover, in test [10], the Kd was determined as 54.7 nM, the koff was 0.00548 s⁻¹ and the association rate constant (kon) came out at 100000 M⁻¹ s⁻¹.
